Experimental data reported in publication PMC3174981.

Molecular target: HIV-1 Gag polyprotein (p6 region) (HIV-1 (NL4-3))

Question: “HIV-1 Vpr L22E (from UniProt P12520 1-96) (natural protein)” was tested. Which % Vpr incorporation into virions relative to WT Vpr (western blot densitometry, Vpr band normalised to p24 CA) did it give?
Answer: The % Vpr incorporation into virions relative to WT Vpr (western blot densitometry, Vpr band normalised to p24 CA) was 20 % of WT.
